One block for each binder: values may come before it.
Biological target: T1, Met-Fc chimera (human, UniProt P08581 25-932)
T1 construct: extracellular domain;domain: Fc domain; Bought from R&D Systems; also called Fc-Met; Met ectodomain; not shown: Fc domain derived from a human IgG
Assay: ELISA, Met-Fc chimera in solid phase, antibody fragment in liquid phase, anti-strepTAG detection
Protocol: Purified DCD-MvDN30.1 and DCD-MvDN30.2 were characterized for their ability to bind the Met receptor. To this end, the present inventors performed ELISA assays using Met ectodomain in solid phase and MvDN30, DCD-MvDN30.1 and DCD-MvDN30.2 in liquid phase.
[…] […] Data were analyzed and fit using Prism software (Graph Pad Software, San Diego, Calif.). Met-Fc chimera is a fusion protein wherein the Fc domain derived from a human IgG is fused in frame with the Met extracellular portion.

T1 sequence (P08581 25-932, change not shown): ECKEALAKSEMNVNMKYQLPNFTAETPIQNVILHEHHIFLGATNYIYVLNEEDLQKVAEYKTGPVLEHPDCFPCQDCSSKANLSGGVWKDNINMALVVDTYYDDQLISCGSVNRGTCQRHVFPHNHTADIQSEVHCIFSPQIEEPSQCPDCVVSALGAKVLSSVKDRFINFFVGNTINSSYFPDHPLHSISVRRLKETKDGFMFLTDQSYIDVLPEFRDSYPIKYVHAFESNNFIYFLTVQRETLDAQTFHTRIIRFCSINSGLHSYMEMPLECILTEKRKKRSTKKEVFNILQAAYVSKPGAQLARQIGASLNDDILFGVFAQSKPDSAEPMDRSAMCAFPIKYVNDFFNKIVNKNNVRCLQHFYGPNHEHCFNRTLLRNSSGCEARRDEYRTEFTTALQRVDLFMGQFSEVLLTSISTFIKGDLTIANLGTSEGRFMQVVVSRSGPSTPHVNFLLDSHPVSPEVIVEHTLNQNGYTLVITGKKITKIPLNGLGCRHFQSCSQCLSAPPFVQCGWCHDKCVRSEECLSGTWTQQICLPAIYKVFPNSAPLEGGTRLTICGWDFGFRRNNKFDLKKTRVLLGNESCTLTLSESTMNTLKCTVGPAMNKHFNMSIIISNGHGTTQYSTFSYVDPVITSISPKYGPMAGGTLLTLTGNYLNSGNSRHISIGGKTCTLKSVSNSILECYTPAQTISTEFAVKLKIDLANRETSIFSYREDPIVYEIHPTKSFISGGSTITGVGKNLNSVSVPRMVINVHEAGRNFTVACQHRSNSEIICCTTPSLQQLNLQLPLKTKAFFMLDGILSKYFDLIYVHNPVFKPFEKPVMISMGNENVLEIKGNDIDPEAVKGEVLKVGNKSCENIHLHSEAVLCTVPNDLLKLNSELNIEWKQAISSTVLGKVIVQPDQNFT

Kd: 0.13 nM
B1: DCD-MvDN30.2 (Dual Constant Domain Fab with the duplicated constant domains swapped reciprocally) (Fab)
heavy: QVQLQQPGTELVKPGASVKLSCKASGYTFTSYWIHWVKQRPGQGLEWIGEINPSSGRTNYNEKFKNKVTVTVDKSSTTAYMQLSNLTSEDSAVYYCASRGYWGQGTTLTVSSASTKGPSVFPLAPSSKSTSGGTAALGCLVKDYFPEPVTVSWNSGALTSGVHTFPAVLQSSGLYSLSSVVTVPSSSLGTQTYICNVNHKPSNTKVDKKVEPKSCTVAAPSVFIFPPSDEQLKSGTASVVCLLNNFYPREAKVQWKVDNALQSGNSQESVTEQDSKDSTYSLSSTLTLSKADYEKHKVYACEVTHQGLSSPVTKSFNRGEC
light: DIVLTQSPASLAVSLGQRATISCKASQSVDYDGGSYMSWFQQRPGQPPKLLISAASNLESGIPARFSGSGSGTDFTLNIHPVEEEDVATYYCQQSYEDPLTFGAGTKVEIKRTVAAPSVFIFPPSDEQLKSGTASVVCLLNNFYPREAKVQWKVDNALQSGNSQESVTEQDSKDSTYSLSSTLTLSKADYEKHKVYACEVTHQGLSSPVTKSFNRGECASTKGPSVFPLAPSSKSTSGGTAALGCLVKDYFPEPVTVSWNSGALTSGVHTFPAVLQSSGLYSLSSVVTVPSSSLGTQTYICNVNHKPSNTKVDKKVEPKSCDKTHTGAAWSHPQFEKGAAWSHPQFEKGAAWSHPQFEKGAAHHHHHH
notes: also called DCD-Fab

Kd: 0.133 nM
B2: DCD-MvDN30.1 (Dual Constant Domain Fab with the duplicated constant domains in tandem) (Fab)
heavy: QVQLQQPGTELVKPGASVKLSCKASGYTFTSYWIHWVKQRPGQGLEWIGEINPSSGRTNYNEKFKNKVTVTVDKSSTTAYMQLSNLTSEDSAVYYCASRGYWGQGTTLTVSSASTKGPSVFPLAPSSKSTSGGTAALGCLVKDYFPEPVTVSWNSGALTSGVHTFPAVLQSSGLYSLSSVVTVPSSSLGTQTYICNVNHKPSNTKVDKKVEPKSCASTKGPSVFPLAPSSKSTSGGTAALGCLVKDYFPEPVTVSWNSGALTSGVHTFPAVLQSSGLYSLSSVVTVPSSSLGTQTYICNVNHKPSNTKVDKKVEPKSCDKTHTGAAWSHPQFEKGAAWSHPQFEKGAAWSHPQFEKGAAHHHHHH
light: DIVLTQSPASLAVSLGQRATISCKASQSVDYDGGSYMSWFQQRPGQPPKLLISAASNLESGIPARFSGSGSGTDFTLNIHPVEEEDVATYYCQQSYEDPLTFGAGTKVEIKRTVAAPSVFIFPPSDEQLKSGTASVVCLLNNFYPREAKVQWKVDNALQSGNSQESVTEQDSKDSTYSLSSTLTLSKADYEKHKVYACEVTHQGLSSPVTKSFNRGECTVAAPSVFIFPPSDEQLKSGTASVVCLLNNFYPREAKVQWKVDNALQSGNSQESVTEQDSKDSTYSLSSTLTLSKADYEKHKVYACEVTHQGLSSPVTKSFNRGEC
notes: also called DCD-Fab

Kd: 0.141 nM
B3: chimerized DN30 Fab (MvDN30) (Fab)
heavy: QVQLQQPGTELVKPGASVKLSCKASGYTFTSYWIHWVKQRPGQGLEWIGEINPSSGRTNYNEKFKNKVTVTVDKSSTTAYMQLSNLTSEDSAVYYCASRGYWGQGTTLTVSSASTKGPSVFPLAPSSKSTSGGTAALGCLVKDYFPEPVTVSWNSGALTSGVHTFPAVLQSSGLYSLSSVVTVPSSSLGTQTYICNVNHKPSNTKVDKKVEPKSC
light: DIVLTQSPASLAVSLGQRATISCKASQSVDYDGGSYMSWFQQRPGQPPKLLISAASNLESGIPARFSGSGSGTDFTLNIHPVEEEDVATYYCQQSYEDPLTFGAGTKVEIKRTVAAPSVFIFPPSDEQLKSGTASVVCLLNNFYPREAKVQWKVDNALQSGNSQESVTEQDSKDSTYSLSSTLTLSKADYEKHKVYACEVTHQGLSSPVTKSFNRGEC
notes: also called chimeric MvDN30; chimeric DN30 Fab

Source: patent US20180237527A1 (METIS PRECISION MEDICINE SB S R L, published 2018)
